experiment: soluble on expression in E. coli; label from the status in PepcDB or PDB records

Soluble on expression in E. coli, not soluble:
MGSDKIHHHHHHMFIETLNLSHFRNFSEVALSPSPKINIITGDNGSGKTSLLEAIYLLGFGRSFRPGGFRQLIKEGNSGFTVFCRSQDYAIGVRRSTDGEQSLRLNGANVQRMSDVARLVPVQLLTPESVDILLEGPGQRRQFIDWGVFHVEHSFYSDWVAYTQLLKQRNSLLKQRSLPVREDRYWKEQLAYYGERISKSREKYLEELNDYIQELAKSFLSDVTMEVRLKSGWDTSQSLFDALESHTEKDKKYGFTSVGAHKADIKVIADGVEVKHRLSRGQLKTAITALKLAQGKHYQKIKRQPCIYLVDDLTSELDSKNQALLCRELENLDAQVFITAITGKQLSDKFQKSPRMFHVEHGVINE
MGSDKIHHHHHHMFLEPFFTQTDETVTISPFQASEFAKRVAEDFNPIHDESAKRFCVPGDLLFALVLSHYGLSQKMQFKFEGMVGEGVCLNFPVEVGDSFPICDSRDKTYLSVSRQGDVSRCETQIESFVRSYVSFSGLNFIHVLVPMMREHGVMINPDRPLVIYESMAFDLTTLDFDQVALELSDARLSVDGKRGDVTLEFALISDGKQVGTGVKTLVMSGLRALDEAALDGMAQFYEERRATL
MGSDKIHHHHHHMFLSSMKLGIQSYSLRKLTYENALKVMSELGISYVEAFPRHLPPSSNSVKDIINLHKENGVKVIAHGVNHLKSDKKELRSIFDFANKVEIEVITADPDEDCLNLMSDLVKEYDIKVAIHNHGPYHRWGSYKKIYEFTKNLDYRVGMCLDLAHLFRYGENPIEAVNTLRDRIHDIHVKDVNNKGEDVIVGSGILDVKGVIGKVKELNLDIPLMIEYEPEPENPLPGIVKSLEYVKKLL
MGSDKIHHHHHHMFNLTKAFLKEVPTNAEVTDFHEVHGGDINKAYSLTDAQGGRYFLKVQPNSVLAFFQHEADGLKLLGQAARVPKVIALGHVGQDQWLLLEYLNATNYGNQYSLGQDLAKIHSITSPNGQFGFDKDFKAGKTSKINTWQSSWYEFFVKQRLNVLRELLINEGKWNDDQNYKKAIEIFQSLMEKHDSRPSLLHGDFWSGNFMFDADSGQPIFIDPDVYYGDPEFDIGITTVFGGFNQDFYVGYQSTKPFQSGAERRLMFYQLYYLMVHAHLFAGSYIQAYRGKLAQIIQQ
MGSDKIHHHHHHMFSRRFRRLSPRDIIGGDVTLRRPSVAEALAVASASFIASFYVSGETILLAAGLALGGLAIASSLPARAGRVFIAGIRLEFMIPGRIVEGEVRTGRLLVENRTLNPMVLKIILKPEEGLEVEPERAEVHAPPLSRRSISLVVKPRFGRYKLIASIEEARSPLGLWSLQPEQPQTAVEVLATPKPEVVSEDISVLTGPGSLDRGREGSGLDYRSFREYQPGDDPRSIEWKLTGRRGAPVVREVEGAESSKPVRLVLAIRPQHYRKPLYNSPYGAAARRLYTISMMLAEEGVRHSVLLPGARGFQELEISTPRDTLELGLALAIYTPEDPPIDYAYLIEDLARRDSPVIVVSPKGTLGEIVDKDRVYVLEV
MGSDKIHHHHHHMFTSFAFVTGAFVLFGCDNGRNSDTICKNNPELCEDLHKDSWCRYEKGDLIRQRFILKTTPNPTGKQIYDQLRFLEVYSKCIELASGVQHKVNVQRTNDRLRAFGISVQNLEELQESTKGSQDPYLAYYHWSRLDDAKSLAVLIKAEKEGQISDPELLSKLAIYYLKTDAARAKKLYLDVLGMVDADHLDPDWLLGLATASRTLGDLDGSYLYSRANIALTKQSVNEAQMLALLTGDKTKAAMLDSEAEQLAKAVSSGNFAGSAIEKRLRAEIDTERAKIEPVAPLAQD
MGSDKIHHHHHHMFYFTVNNPQDPLSTEIVETNRRDLAFWHRLRPKDDDDLATAINKICVRTGLSRKLIAACLFSICFLPYLPNFHKLVEKLGHLDMARINAITKAGEKVPSEKRELFDAYLVDYLTPRAEAQCLPQASSISAMMRKFIAQHCPDDKASSATNDGSIRYRRNNKGGISITVDATASEVTEIKAALEQMSKDKDCTPGTSLLHIIRGLPTKVVLNTYGTKDSPEYLEGGTWLSKEQSEFWKTRTTSSRDMDAAHFSYTTAYAPTREMRVYIKGLRTTCSVPGCSVAVENCQLDHIIPWGEGGPTTPWNIHPLCVFHHIQKTEGRLQCYPLPDGTVLFLVDGIPVFSIPDGPLSKSNKTWGTKFGKYMERRIAA
MGSDKIHHHHHHMGACQPNNSQLYIGIDGGGSKCRATIYTAEHQKLGTGVAGRANPLHGLEQTFLSITESTQLAIADAGLAPSTSQQLIAGIGLAGVNVSHYYQHIVNWQHPFKAMYLTTDLHTACIGAHNGEDGAVIITGTGSCGYAHVGDNTICLGGHGFALGDKGSGAWLGLKAVEHVLLALDGFACATSLTERLLSHFNALDAMGIVEQLAGQSSSAYAKLARSVLACAQEGDAVAISIVKEGAEYICKLARKLFAVNPSRFSMIGGLVEPLYPWLDEDVAKRISPALTPPEFGAFLFARKQFNTKA
MGSDKIHHHHHHMGDRLYFERFIWFDSQIRNGCYPNASALARKFEFDIKTAQRSIEYFRDRLGAPLDYDASRRGYRYYDPNYQLPVTHLSESELVALLASRKLLTDAAAGPLGDELEKVSNRLGALLSNGLKGKINPERAFSFRWNGMAASDPVIFEQAVSALLSCRLLTFCYYSPLAGACTARTVEPHHMINYMGAWHLIAWCRLRNDWRDFHLARVSLAHLEEEIFSPRDETTWRPCLDETFGIFQNRERFDVTIRFSADRARWVREELWHQDQSTRDLDTGEVELTIPVSHEAEILMEVLKHGSHAEVMEPIWLRDRIREEIGKMQKKY
MGSDKIHHHHHHMGEVYEKNNIDFDSIAKMLLIKYKDFILSKFKKAAPVENIRFQNLVHTNQFAQGVLGQSQHLCTVYDNPSWHSIVLETLDLDLIYKNVDKEFAKDGHAEGENIYTDYLVKELLRYFKQDFFKWCNKPDCNHCGQNTSENMTPLGSQGPNGEESKFNCGTVEIYKCNRCGNITRFPRYNDPIKLLETRKGRCGEWCNLFTLILKSFGLDVRYVWNREDHVWCEYFSNFLNRWVHVDSCEQSFDQPYIYSINWNKKMSYCIAFGKDGVVDVSKRYILQNELPRDQIKEEDLKFLCQFITKRLRYSLNDDEIYQLACRDEQEQIELIRGKTQETKSESVSAASKSSNRGRESGSADWKAQRGEDGK
MGSDKIHHHHHHMGFDVEALKAALEAHGRVIRVVVAEVKGSAPREVGAAMLVWDGGQSGTIGGGTLEFEAADAARRQDAPYRLSTHALGPDLGQCCGGAVTLLSEVYTEVNIAQLTGQVISRAVAPGPEPLAVSRILNHARAQGLAPAPQLIAGWMIEPVACATRPLWIWGAGHVGRALVEVLAPLPDYAITWVDVMRSKYPQEIPASVTALPAQEPGRLVPHAPTEAYHLILTYSHQLDLALCHRLLEHGFDFAGLIGSKTKWARFRARLAALGHRPEQIARLTCPIGMPELGKHPHAIAIGVAAELMALSQRLDLKKEHSA
MGSDKIHHHHHHMGGCCSQEGCNTRPRYLPLKCYPGLPMRATRRLDLSAVERALREVQGRFAELSQHFTEPRDPFTDEVLLNVVEGYALIDDYVARGIDLFDLQQLNLMLEINATVLCGSDPARRLEFAPHLAATEAHFFNNVEGGIKDLYNWYCAYRSDSIWKRAAGVYVRILSKPQLFIEGNNRTGSLIVSYLLMRAGLPPFVLSLDNAEGYFNPSSVIRNSAKHGVKALYELPKIKKKYAAFLEAKAPEPGKFFLNGTPVPACEGSR
MGSDKIHHHHHHMGHSLLFAVDVRPPHDVGVDGPRTASMCQNEVVADLKQRRPSVEQIIRIGIDTSKHVFQLHGVNAAEEPVLRKKLRRKEVVALFEKLSPTVVAIEACGGSHHWARLLQSFGHEVKLIPPQYVKPYVKRGKNDTADAEALCEAMSRPTMRFVPVKTAKQQAALMLVGLRDRLIRNRTQLANAIRGYAAEYGLIAARGMCKIEPLLERIAADKMLPDLARELFALHAKEYAQLQTQLKDVDAKLMAWHRAEACSQRLAQIPGVGPIGASLLVMKTPAPETFRSARHFAAWLGLTPKDHSTAGRVRLGVITRAGDEALRSVLVAGATAVIRHVRRGRGAVSPWLVDLLKRKPPKLAAVALANKIARIAWKLMVSGEIYGAKPMPPASARAA

— the DeepSol protein solubility set
